Consider two proteins from patent US20030171565.

The data set concerns the target T1, protein zero related (PZR), tyrosine-phosphorylated.
T1 chain: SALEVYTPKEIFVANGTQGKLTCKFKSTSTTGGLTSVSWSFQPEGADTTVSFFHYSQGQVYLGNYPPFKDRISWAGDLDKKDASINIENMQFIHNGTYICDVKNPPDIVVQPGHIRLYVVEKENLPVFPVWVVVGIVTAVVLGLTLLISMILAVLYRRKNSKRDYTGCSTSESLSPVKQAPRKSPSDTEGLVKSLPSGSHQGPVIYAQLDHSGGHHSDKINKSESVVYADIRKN

B1: tyrosine phosphatase SHP-2, native full-length form (protein)
chain: TSRRWFHPNITGVEAENLLLTRGVDGSFLARPSKSNPGDFTLSVRRNGAVTHIKIQNTGDYYDLYGGEKFATLAELVQYYMEHHGQLKEKNGDVIELKYPLNCADPTSERWFHGHLSGKEAEKLLTEKGKHGSFLVRESQSHPGDFVLSVRTGDDKGESNDGKSKVTHVMIRCQELKYDVGGGERFDSLTDLVEHYKKNPMVETLGTVLQLKQPLNTTRINAAEIESRVRELSKLAETTDKVKQGFWEEFETLQQQECKLLYSRKEGQRQENKNKNRYKNILPFDHTRVVLHDGDPNEPVSDYINANIIMPEFETKCNNSKPKKSYIATQGCLQNTVNDFWRMVFQENSRVIVMTTKEVERGKSKCVKYWPDEYALKEYGVMRVRNVKESAAHDYTLRELKLSKVGQGNTERTVWQYHFRTWPDHGVPSDPGGVLDFLEEVHHKQESIMDAGPVVVHCSAGIGRTGTFIVIDILIDIIREKGVDCDIDVPKTIQMVRSQRSGMVQTEAQYRFIYMAVQHYIETLQRRIEEEQKSKRKGHEYTNIKYSLADQTSGDQSPLPPCTPTPPCAEMREDSARVYENVGLMQQQKSFR
On to B1, for which the “dephosphorylation of purified p43 in vitro (anti-phosphotyrosine Western blot)” value was “SHP-2 caused complete dephosphorylation of p43”, the “in vitro dephosphorylation of immuno-purified tyrosine-phosphorylated PZR” value is recorded as “higher concentrations of SHP-2 (up to 5 µg/ml) helped to push the dephosphorylation to near completion” and the “in vitro dephosphorylation of immuno-purified tyrosine-phosphorylated PZR (anti-phosphotyrosine Western blot)” value is recorded as “full length SHP-2 caused rapid dephosphorylation”.

B2: SH2 domain-truncated form of SHP-2 (protein)
chain: NPMVETLGTVLQLKQPLNTTRINAAEIESRVRELSKLAETTDKVKQGFWEEFETLQQQECKLLYSRKEGQRQENKNKNRYKNILPFDHTRVVLHDGDPNEPVSDYINANIIMPEFETKCNNSKPKKSYIATQGCLQNTVNDFWRMVFQENSRVIVMTTKEVERGKSKCVKYWPDEYALKEYGVMRVRNVKESAAHDYTLRELKLSKVGQGNTERTVWQYHFRTWPDHGVPSDPGGVLDFLEEVHHKQESIMDAGPVVVHCSAGIGRTGTFIVIDILIDIIREKGVDCDIDVPKTIQMVRSQRSGMVQTEAQYRFIYMAVQHYIETLQRRIEEEQKSKRKGHEYTNIKYSLADQTSGDQSPLPPCTPTPPCAEMREDSARVYENVGLMQQQKSFR
As for B2, the “in vitro dephosphorylation of immuno-purified tyrosine-phosphorylated PZR (anti-phosphotyrosine Western blot)” value is “the truncated enzyme had essentially no effect”.
